These results are taken from paper PMC7072329 (Biomolecules, 2020).

Where no end group is shown, it is not given here. [ ]: non-standard residue; d: D form. The star is where a group is joined. Kyn = Nc1ccccc1C(=O)C[C@H](N)C(=O)O; NMeF = CN[C@@H](Cc1ccccc1)C(=O)O; NHCH2CH2OH = OCCN*

Experiment [1] concerns the target T1, μ-opioid receptor (rat (endogenous in rat brain), UniProt P33535 1-398).
T1 construct: μ-opioid receptor, rat (Wistar), endogenous in brain membrane homogenate; defined by displacement of [^3H]DAMGO; In membranes, not on intact cells; also called MOR; µ-opioid receptor; source: endogenous, rat brain membrane homogenate
The experiment can be described thus: radioligand binding; displacement of [^3H]DAMGO from rat brain membrane homogenate by unlabelled ligand (10^-10 to 10^-5 M); 50 mM Tris-HCl pH 7.4, 35 °C, 45 min; non-specific binding with 10 μM naloxone; IC50 converted into Ki by Cheng-Prusoff, one site competition fit. The following applies: one partner purified.

For experiment [2], the target named is T1, μ-opioid receptor. The experiment can be described thus: cell-based or functional assay.
In experiment [3] the target is T1, μ-opioid receptor. The experiment can be described thus: cell-based or functional assay. The source holds these as a separate data set.
The target in a further experiment is T2, δ-opioid receptor (rat (endogenous in rat brain), UniProt P33533 1-372).
T2 construct: δ-opioid receptor, rat (Wistar), endogenous in brain membrane homogenate; defined by displacement of [^3H]Ile^5,6Delt II; In membranes, not on intact cells; also called DOR; source: endogenous, rat brain membrane homogenate
Put plainly: radioligand binding. The following applies: one partner purified.

The next experiment deals with T3, κ-opioid receptor (guinea pig (endogenous in guinea pig …, UniProt P41144 1-380)).
T3 construct: κ-opioid receptor, guinea pig, endogenous in brain membrane homogenate; defined by displacement of [^3H]HS665; In membranes, not on intact cells; also called KOR; k-opioid receptor; source: endogenous, guinea pig brain membrane homogenate
Put plainly: radioligand binding; displacement of [^3H]HS665 from guinea pig brain membrane homogenate by unlabelled ligand (10^-10 to 10^-5 M); 50 mM Tris-HCl pH 7.4, 25 °C, 30 min; non-specific binding with 10 μM HS665; IC50 converted into Ki by Cheng-Prusoff. The following applies: one partner purified.

T2 sequence (P33533 whole entry, stated change not applied): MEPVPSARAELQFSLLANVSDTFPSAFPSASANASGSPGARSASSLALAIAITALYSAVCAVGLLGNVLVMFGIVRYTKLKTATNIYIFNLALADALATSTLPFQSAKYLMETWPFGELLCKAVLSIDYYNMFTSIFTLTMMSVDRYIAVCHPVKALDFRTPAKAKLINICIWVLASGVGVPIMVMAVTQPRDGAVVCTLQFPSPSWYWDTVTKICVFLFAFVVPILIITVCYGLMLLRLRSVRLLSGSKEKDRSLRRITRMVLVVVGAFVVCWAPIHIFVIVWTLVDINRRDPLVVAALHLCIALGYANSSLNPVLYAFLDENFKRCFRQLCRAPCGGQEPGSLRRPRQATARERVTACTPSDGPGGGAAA
T3 sequence (P41144 whole entry): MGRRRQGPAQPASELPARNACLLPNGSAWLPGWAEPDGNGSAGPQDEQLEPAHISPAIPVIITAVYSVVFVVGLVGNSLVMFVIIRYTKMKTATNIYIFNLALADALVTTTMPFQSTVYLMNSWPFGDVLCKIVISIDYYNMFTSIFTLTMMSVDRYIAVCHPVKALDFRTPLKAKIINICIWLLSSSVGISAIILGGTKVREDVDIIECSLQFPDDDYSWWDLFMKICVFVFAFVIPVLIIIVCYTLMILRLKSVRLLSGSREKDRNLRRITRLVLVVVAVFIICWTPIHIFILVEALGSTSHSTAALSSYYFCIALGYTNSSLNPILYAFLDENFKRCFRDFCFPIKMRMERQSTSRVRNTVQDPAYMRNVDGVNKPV
T1 sequence (P33535 whole entry): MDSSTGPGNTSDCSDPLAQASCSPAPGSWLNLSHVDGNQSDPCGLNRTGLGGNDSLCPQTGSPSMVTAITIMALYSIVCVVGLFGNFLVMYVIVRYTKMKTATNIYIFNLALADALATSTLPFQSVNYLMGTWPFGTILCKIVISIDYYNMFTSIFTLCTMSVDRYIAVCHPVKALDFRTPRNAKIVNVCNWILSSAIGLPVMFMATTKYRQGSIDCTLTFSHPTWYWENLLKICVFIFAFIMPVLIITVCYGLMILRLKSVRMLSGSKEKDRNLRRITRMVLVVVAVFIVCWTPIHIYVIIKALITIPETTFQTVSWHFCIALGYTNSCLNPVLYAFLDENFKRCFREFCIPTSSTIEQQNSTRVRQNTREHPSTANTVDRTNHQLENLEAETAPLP

Broadly, the Ki is a dissociation constant, usually derived from enzyme kinetics or from competition with a known ligand. Low readings indicate higher affinity, high ones lower affinity. Regarding YP[Kyn]F-NH2 [Peptide K2], the affinity with μ-opioid receptor [1], expressed as Ki, was 1.39 nM.

Take Y[dA]GF[Kyn]-NH2 [Peptide K6]: the “Log EC50 of [^35S]GTPγS binding (G-protein activation), rat brain membrane homogenates” value in the experiment with μ-opioid receptor [2] was -5.98. For the same molecule, the “logEC50 of [^35S]GTPγS binding as told in the conclusions (differs from Table 2)” value in the experiment with μ-opioid receptor [3] is -5.6. Also, the Ki is 32.5 nM with δ-opioid receptor, 1.84 nM with μ-opioid receptor [1] and 128 nM with κ-opioid receptor.

For Y[dA]GF[Kyn]-OMe [Peptide K4], the Ki was 31.2 nM with δ-opioid receptor, 2.29 nM with μ-opioid receptor [1] and above 10000 nM in the experiment with κ-opioid receptor.

B1: Peptide KA1 (peptide)
peptide: Y[dA]G[NMeF][NHCH2CH2OH]-{kynurenic acid (ester on OH)}
notes: the order of couplings in Scheme 1 (ethanolamine-kyna ester, Boc-N-Me-Phe, Boc-Gly, Boc-DAla, Boc-Tyr) agrees; the drawn structure is in Scheme 1; also called kyna-containing peptide; source: synthetic peptide (solution phase synthesis, RP-HPLC purified, TFA salt)
As for B1, the inhibitory constant (Ki) is 555 nM with δ-opioid receptor and above 10000 nM in the experiment with κ-opioid receptor.

Y[dA]GF[Kyn]-OH [Peptide K5]: the figures for the inhibition constant (Ki) with δ-opioid receptor, in the experiment with μ-opioid receptor [1] and with κ-opioid receptor were 94.4 nM, 9.11 nM and above 10000 nM, respectively.

B2: Peptide K3 (peptide)
chain: YPF[Kyn]-NH2
modifications: N-terminus assumed
SMILES: NC(=O)[C@H](CC(=O)c1ccccc1N)NC(=O)[C@H](Cc1ccccc1)NC(=O)[C@@H]1CCCN1C(=O)[C@@H](N)Cc1ccc(O)cc1
For the molecule B2, the Ki with δ-opioid receptor was 159 nM; in the experiment with μ-opioid receptor [1], 197 nM; with κ-opioid receptor, above 10000 nM.
